According to US20220259593A1, “CONTROL OF MAMMALIAN GENE DOSAGE USING CRISPR” (The Regents of the University of California, priority 2019, published 2022):
Residue numbers refer to the chain shown, from its start.

B1: cr317 (nucleic acid)
guide: GTTTAAGAGCTAAGCTGGAAACAGCATAGCAAGTTTAAATATGGCTAGTCCGTTATCAACTTGAAAAAGTGGCACCGAGTCGGTGCT
modifications: listed as DNA, chemistry not fully specified
B2: cr177 (nucleic acid)
guide: B1 guide with T40G, T42A
modifications: listed as DNA, chemistry not fully specified
B3: cr405 (nucleic acid)
guide: B1 guide with T42A, G72T, C75G, G77A, C81T, G83C, C86A
modifications: listed as DNA, chemistry not fully specified
B4: cr369 (nucleic acid)
guide: B1 guide with T42A, C60A
modifications: listed as DNA, chemistry not fully specified
B5: cr566 (nucleic acid)
guide: B1 guide with T34C, T42A, T61A, A68T
modifications: listed as DNA, chemistry not fully specified
B6: cr620 (nucleic acid)
guide: B1 guide with T42A, C45G, G48C, C73A, C76T, G82A, G85T
modifications: listed as DNA, chemistry not fully specified
B7: cr868 (nucleic acid)
guide: B1 guide with T36C, T42A
modifications: listed as DNA, chemistry not fully specified
B8: cr955 (nucleic acid)
guide: B1 guide with T42A, G48A
modifications: listed as DNA, chemistry not fully specified
B9: cr016 (nucleic acid)
guide: B1 guide with A6T, T42A
modifications: listed as DNA, chemistry not fully specified
B10: cr183 (nucleic acid)
guide: B1 guide with T42A, C45T, G48A, A65G
modifications: listed as DNA, chemistry not fully specified
B11: cr758 (nucleic acid)
guide: B1 guide with T34C, T42A, T53C
modifications: listed as DNA, chemistry not fully specified
B12: cr682 (nucleic acid)
guide: B1 guide with T42A, G44C, C45G, G48C, C50G
modifications: listed as DNA, chemistry not fully specified
B13: cr175 (nucleic acid)
guide: B1 guide with T42A, A58C
modifications: listed as DNA, chemistry not fully specified
B14: cr611 (nucleic acid)
guide: B1 guide with T42A, T56G, C57A, G79A
modifications: listed as DNA, chemistry not fully specified
B15: cr486 (nucleic acid)
guide: B1 guide with T42A, G72A, C73A, C76T, G82A, G85T, C86T
modifications: listed as DNA, chemistry not fully specified
B16: cr824 (nucleic acid)
guide: B1 guide with T42A, A65C, T80G
modifications: listed as DNA, chemistry not fully specified
B17: cr165 (nucleic acid)
guide: B1 guide with T42A, G43A, C51T, T62C, A67G, G72T, C86A
modifications: listed as DNA, chemistry not fully specified
B18: cr071 (nucleic acid)
guide: B1 guide with A6C, A8G, T42A
modifications: listed as DNA, chemistry not fully specified
B19: cr040 (nucleic acid)
guide: B1 guide with G1A, A6C, T42A
modifications: listed as DNA, chemistry not fully specified
B20: cr318 (nucleic acid)
guide: B1 guide with A65T
modifications: listed as DNA, chemistry not fully specified
B21: cr721 (nucleic acid)
guide: B1 guide with T42A, T53C, C57T, G79A
modifications: listed as DNA, chemistry not fully specified
B22: cr148 (nucleic acid)
guide: B1 guide with T34C, T42A, A74G, T84C
modifications: listed as DNA, chemistry not fully specified
B23: cr485 (nucleic acid)
guide: B1 guide with T42A, A47T, G71T, A78T
modifications: listed as DNA, chemistry not fully specified
B24: cr770 (nucleic acid)
guide: B1 guide with T34C, T42A, C73A, G85T
modifications: listed as DNA, chemistry not fully specified
B25: cr399 (nucleic acid)
guide: B1 guide with T42A, G82C
modifications: listed as DNA, chemistry not fully specified
B26: cr460 (nucleic acid)
guide: B1 guide with T42A, C45G, G48C, A74T, C76A, G82T, T84A
modifications: listed as DNA, chemistry not fully specified
B27: cr904 (nucleic acid)
guide: B1 guide with T42A, G44T, C50A, C60T, G69A, C75A, G83T
modifications: listed as DNA, chemistry not fully specified
B28: cr873 (nucleic acid)
guide: B1 guide with T34C, T42A, T62A, A67T
modifications: listed as DNA, chemistry not fully specified
B29: cr866 (nucleic acid)
guide: B1 guide with T42A, G72T, A74C
modifications: listed as DNA, chemistry not fully specified
B30: cr530 (nucleic acid)
guide: B1 guide with T42A, T49C, T53A, A66C
modifications: listed as DNA, chemistry not fully specified
B31: cr425 (nucleic acid)
guide: B1 guide with T42A, A59T, T61C, A68T, T70C
modifications: listed as DNA, chemistry not fully specified
B32: cr809 (nucleic acid)
guide: B1 guide with T42A, T61G, A68C, C73A, G85T
modifications: listed as DNA, chemistry not fully specified
B33: cr163 (nucleic acid)
guide: B1 guide with T34C, T42A
modifications: listed as DNA, chemistry not fully specified
B34: cr240 (nucleic acid)
guide: B1 guide with T42A, T56A
modifications: listed as DNA, chemistry not fully specified
B35: cr124 (nucleic acid)
guide: B1 guide with A32T
modifications: listed as DNA, chemistry not fully specified
B36: cr120 (nucleic acid)
guide: B1 guide with T42A, A65G, G77C, C81G
modifications: listed as DNA, chemistry not fully specified
B37: cr765 (nucleic acid)
guide: B1 guide with T42A, T62G, A67C, C76T, G77C, C81G, G82A
modifications: listed as DNA, chemistry not fully specified
B38: cr171 (nucleic acid)
guide: B1 guide with T42A, T61C, A65G, A68G
modifications: listed as DNA, chemistry not fully specified
B39: cr493 (nucleic acid)
guide: B1 guide with T42A, T49C, T56C, C57A
modifications: listed as DNA, chemistry not fully specified
B40: cr668 (nucleic acid)
guide: B1 guide with T42A, C60G
modifications: listed as DNA, chemistry not fully specified
B41: cr920 (nucleic acid)
guide: B1 guide with T42A, A55G, T56A, A58T
modifications: listed as DNA, chemistry not fully specified

System: K562 CRISPRi cells
Assay: Constant region variant library pooled growth screen, K562
Type: cell-based, human
Details: sgRNA constant region variants, un-modified constant region cr995
In short: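 Library of sgRNA constant-region variants, each paired with 36 targeting sequences (essential-gene and non-targeting), transduced in duplicate into K562 CRISPRi cells, puromycin-selected and grown 4–8 days at >2000× coverage. Activity per variant is its growth phenotype normalised to the same targeting sequence with unmodified constant region.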

[1] = relative to the original, CRISPRi
[2] = activity relative to the original

Row | Molecule | Mean relative activity [1] | Mean relative activity [2]
1 | B1 | 0.5027 | –
2 | B2 | 0.4771 | –
3 | B3 | 0.4582 | –
4 | B4 | 0.4754 | –
5 | B5 | 0.4299 | –
6 | B6 | 0.4842 | –
7 | B7 | 0.4517 | –
8 | B8 | 0.4541 | –
9 | B9 | 0.4876 | –
10 | B10 | – | 1.047
11 | B11 | 0.4614 | –
12 | B12 | 0.4794 | –
13 | B13 | 0.4914 | –
14 | B14 | 0.4954 | –
15 | B15 | 0.4409 | –
16 | B16 | 0.499 | –
17 | B17 | 0.4224 | –
18 | B18 | 0.475 | –
19 | B19 | 0.4233 | –
20 | B20 | 0.4269 | –
21 | B21 | 0.4696 | –

Row | Molecule | Mean relative activity [1] | Mean relative activity [2]
22 | B22 | 0.4276 | –
23 | B23 | 0.4419 | –
24 | B24 | 0.4771 | –
25 | B25 | 0.4727 | –
26 | B26 | 0.4381 | –
27 | B27 | 0.4677 | –
28 | B28 | 0.4546 | –
29 | B29 | 0.4434 | –
30 | B30 | 0.4998 | –
31 | B31 | 0.4409 | –
32 | B32 | – | 1.042
33 | B33 | 0.4662 | –
34 | B34 | – | 1.046
35 | B35 | 0.4757 | –
36 | B36 | 0.5005 | –
37 | B37 | 0.4931 | –
38 | B38 | – | 1.044
39 | B39 | 0.4736 | –
40 | B40 | 0.4445 | –
41 | B41 | 0.4567 | –
